B3: mouse CALHM1-FLAG (natural protein, UniProt D3Z291 1-348, looked up)
chain: MDKFRMIFQFLQSNQESFMNGICGIMALASAQMYSAFDFNCPCLPGYNVVYSLGILLTPPLVLFLLGLVMNNNISMLAEEWKRPAGRRAKDPAVLRYMFCSMAQRALIAPVVWVAVTLLDGKCFLCAFCTAVPVATLGNGSLVPGLPAPELARLLARVPCPEIYDGNWLLAREVAVRYLRCISQALGWSFVLLTTLLAFVVRSVRPCFTQVAFLKSKYWSHYIDIERKLFDETCTEHAKAFAKVCIQQFFEAMNHDLELGHTHGVLATATATATATEAVQSPSDRTEEEREKLRGITDQGTMNRLLTSWHKCKPPLRLGQEAPLMSNGWAGGEPRPPRKEVATYFSKV

Columns and labels:
mouse CALHM1-FLAG = target: B3; assay: native gel or EMSA
[1] = target: the molecule itself; assay: single-molecule photobleaching
native gel or EMSA = target: the molecule itself; assay: native gel or EMSA

B1: mouse CALHM3-GFP (natural protein, UniProt J3QMI4 1-347, looked up)
chain: MDRFRMLFQHLQSSSESVMNGICLLLAAVTVKIYSSLDFNCPCLERYNALYGLGLLLTPPLALFLCGLLVNRQSVLMVEEWRRPAGHRRKDLGIIRYMCSSVLQRALAAPLVWILLALLDGKCFVCAFSNSVDPEKFLDFANMTPRQVQLFLAKVPCKEDELVKNSPARKAVSRYLRCLSQAIGWSITLLVIVVAFLARCLRPCFDQTVFLQRRYWSNYMDLEQKLFDETCCEHARDFAHRCVLHFFANMQSELRALGLRRDPAGGIPESQESSEPPELREDRDSGNGKAHLRAISSREQVDQLLSTWYSSKPPLDLAASPRRWGPGLNHRAPIAAPGTKLCHQLNV
B1 was tested, and the “stoichiometry N” value (mouse CALHM1-FLAG) was ≥ 1 CALHM3 subunit per channel.

B2: CALHM3-mCherry (natural protein, mouse, UniProt J3QMI4 1-347, looked up)
chain: MDRFRMLFQHLQSSSESVMNGICLLLAAVTVKIYSSLDFNCPCLERYNALYGLGLLLTPPLALFLCGLLVNRQSVLMVEEWRRPAGHRRKDLGIIRYMCSSVLQRALAAPLVWILLALLDGKCFVCAFSNSVDPEKFLDFANMTPRQVQLFLAKVPCKEDELVKNSPARKAVSRYLRCLSQAIGWSITLLVIVVAFLARCLRPCFDQTVFLQRRYWSNYMDLEQKLFDETCCEHARDFAHRCVLHFFANMQSELRALGLRRDPAGGIPESQESSEPPELREDRDSGNGKAHLRAISSREQVDQLLSTWYSSKPPLDLAASPRRWGPGLNHRAPIAAPGTKLCHQLNV
For B2, the “stoichiometry N” value [1] was 6.

B3 was tested, and the “stoichiometry N” value (native gel or EMSA) was about 6.
